We go through one protein from paper PMC4900533.

Data set [1] in a line: immunoblot of PNGase F-treated MDCKII lysates, densitometry. To be noted: glycan lost; control: wild type.
A short description of data set [2]: confocal microscopy, apical marker gp135, MDCKII. To be noted: glycan lost; control: wild type.

B1: ABCG2: Q596 (protein)
parent chain: MSSSNVEVFIPVSQGNTNGFPATASNDLKAFTEGAVLSFHNICYRVKLKSGFLPCRKPVEKEILSNINGIMKPGLNAILGPTGGGKSSLLDVLAARKDPSGLSGDVLINGAPRPANFKCNSGYVVQDDVVMGTLTVRENLQFSAALRLATTMTNHEKNERINRVIQELGLDKVADSKVGTQFIRGVSGGERKRTSIGMELITDPSILFLDEPTTGLDSSTANAVLLLLKRMSKQGRTIIFSIHQPRYSIFKLFDSLTLLASGRLMFHGPAQEALGYFESAGYHCEAYNNPADFFLDIINGDSTAVALNREEDFKATEIIEPSKQDKPLIEKLAEIYVNSSFYKETKAELHQLSGGEKKKKITVFKEISYTTSFCHQLRWVSKRSFKNLLGNPQASIAQIIVTVVLGLVIGAIYFGLKNDSTGIQNRAGVLFFLTTNQCFSSVSAVELFVVEKKLFIHEYISGYYRVSSYFLGKLLSDLLPMRMLPSIIFTCIVYFMLGLKPKADAFFVMMFTLMMVAYSASSMALAIAAGQSVVSVATLLMTICFVFMMIFSGLLVNLTTIASWLSWLQYFSIPRYGFTALQHNEFLGQNFCPGLNATGNNPCNYATCTGEEYLVKQGIDLSPWGLWKNHVALACMIVIFLTIAYLKLLFLKKYS
As for B1, in data set [1], the expression_or_secretion entry is reported as “decreases”. Further, the localisation_or_trafficking entry in data set [2] was “no change”.
